Earlier results on 2 substances are cited in article PMC3683042, “Solution Structure and Peptide Binding of the PTB Domain from the AIDA1 Postsynaptic Signaling Scaffolding Protein” (PLoS ONE, 2013).

The target in data set [1] is APP 32 aa peptide (Homo sapiens) (UniProt P05067).
Data set [2] addresses APP 11 aa peptide (Homo sapiens) (UniProt P05067).
For data set [3], the target named is APP 14 aa peptide (Homo sapiens) (UniProt P05067).

Sequence of Fe65 PTB2 (O00213 542-699): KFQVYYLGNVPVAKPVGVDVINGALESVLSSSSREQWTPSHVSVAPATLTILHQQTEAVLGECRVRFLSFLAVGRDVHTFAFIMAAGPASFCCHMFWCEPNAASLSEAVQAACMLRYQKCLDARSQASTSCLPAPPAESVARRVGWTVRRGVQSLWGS
Sequence of X11 PTB (Q02410 457-643): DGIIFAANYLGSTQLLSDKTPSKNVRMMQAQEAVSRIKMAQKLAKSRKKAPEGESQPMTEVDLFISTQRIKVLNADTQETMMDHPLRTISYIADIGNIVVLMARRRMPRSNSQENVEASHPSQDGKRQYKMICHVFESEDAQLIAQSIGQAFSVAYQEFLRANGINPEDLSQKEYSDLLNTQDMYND
Sequence of APP 32 aa peptide (Homo sapiens) (P05067 739-770): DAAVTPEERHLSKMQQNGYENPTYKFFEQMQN
Sequence of APP 11 aa peptide (Homo sapiens) (P05067 whole entry, looked up, tested part not stated): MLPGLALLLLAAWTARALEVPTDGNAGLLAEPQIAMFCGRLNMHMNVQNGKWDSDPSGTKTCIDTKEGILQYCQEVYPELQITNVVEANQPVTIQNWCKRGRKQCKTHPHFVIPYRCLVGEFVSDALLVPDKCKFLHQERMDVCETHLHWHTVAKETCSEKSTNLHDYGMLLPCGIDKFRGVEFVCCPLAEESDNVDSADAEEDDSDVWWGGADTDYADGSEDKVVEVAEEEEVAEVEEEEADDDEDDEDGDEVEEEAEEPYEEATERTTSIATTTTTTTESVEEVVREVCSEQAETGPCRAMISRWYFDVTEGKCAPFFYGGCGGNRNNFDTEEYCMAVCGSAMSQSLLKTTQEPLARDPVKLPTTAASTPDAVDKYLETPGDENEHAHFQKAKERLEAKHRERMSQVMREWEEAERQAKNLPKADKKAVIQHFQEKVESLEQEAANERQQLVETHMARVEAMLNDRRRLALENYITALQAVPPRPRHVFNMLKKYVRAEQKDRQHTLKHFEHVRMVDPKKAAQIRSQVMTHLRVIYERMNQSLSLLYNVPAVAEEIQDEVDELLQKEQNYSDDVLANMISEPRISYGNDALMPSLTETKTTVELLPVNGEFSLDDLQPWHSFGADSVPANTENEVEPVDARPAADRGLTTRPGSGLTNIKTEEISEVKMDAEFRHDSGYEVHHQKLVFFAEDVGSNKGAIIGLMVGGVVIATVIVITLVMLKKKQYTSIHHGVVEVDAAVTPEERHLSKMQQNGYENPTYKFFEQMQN

In the case of Fe65 PTB2 (from UniProt O00213), the Kd in data set [1] is 200 nM; in data set [2], 100000 nM. For X11 PTB (from UniProt Q02410), the Kd in data set [3] was 300 nM.
